Test results: patent publication US20260232827A1, “ANTIBODY-DRUG CONJUGATES TARGETING NAPI2B AND METHODS OF USE” (Zymeworks BC Inc., priority 2023, published 2026)

Biological target: T1, human NaPi2b (Homo sapiens, UniProt O95436)
T1 construct: Full length human NaPi2b; host or cells: HEK293-6e
T1 sequence (O95436 1-690): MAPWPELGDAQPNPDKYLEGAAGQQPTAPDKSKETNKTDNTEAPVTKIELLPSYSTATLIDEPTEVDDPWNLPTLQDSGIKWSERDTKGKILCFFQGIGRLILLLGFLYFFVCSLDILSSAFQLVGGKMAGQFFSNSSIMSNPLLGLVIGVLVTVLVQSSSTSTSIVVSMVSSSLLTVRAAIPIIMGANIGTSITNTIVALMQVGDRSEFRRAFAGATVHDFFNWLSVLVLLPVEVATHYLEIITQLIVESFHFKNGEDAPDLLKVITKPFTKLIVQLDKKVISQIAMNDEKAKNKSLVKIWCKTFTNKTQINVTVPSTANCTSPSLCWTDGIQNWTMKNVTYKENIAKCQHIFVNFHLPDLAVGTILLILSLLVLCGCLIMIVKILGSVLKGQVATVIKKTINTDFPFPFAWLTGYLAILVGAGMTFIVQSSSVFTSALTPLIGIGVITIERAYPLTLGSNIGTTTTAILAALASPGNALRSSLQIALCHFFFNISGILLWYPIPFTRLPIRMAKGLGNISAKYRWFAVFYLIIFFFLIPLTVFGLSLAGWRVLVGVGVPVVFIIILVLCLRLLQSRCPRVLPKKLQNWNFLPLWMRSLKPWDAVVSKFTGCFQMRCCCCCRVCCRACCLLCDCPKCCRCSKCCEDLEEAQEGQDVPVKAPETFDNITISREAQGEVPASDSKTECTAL
Experiment: Flow cytometry binding to transfected HEK293-6e cells
Conditions: huNaPi2b (full length human NaPi2b), 24 hours at 4° C.
Protocol: The binding cross-reactivity of humanized antibody variant v29456 to human, cynomolgus and mouse NaPi2b was assessed by flow cytometry using HEK293-6e transfected cells.
Following staining and washing, fluorescence was detected by flow cytometry on BD LSRFortessa™ Cell Analyzer (BD Biosciences, Franklin Lake, NJ) with 10,000 minimum events collected per well. The AF647/APC-A GeoMean (fluorescence signal geometric mean, proportional to anti-Human AF647 binding) was calculated for the live singlet cell population for each primary antibody using FlowJo™ v8 software (BD Biosciences, Franklin Lake, NJ). The Bmax and Kd of each primary antibody were calculated using GraphPad Prism Version 9 (GraphPad Software, San Diego, CA)
(§1) Following incubation and washing, fluorescence was detected by flow cytometry on a BD LSRFortessa™ Cell Analyzer (BD Biosciences, Franklin Lake, NJ) with 1,000 minimum events collected per well.
as §1, §1

## palivizumab [palivizumab (v21995)]
Antibody 2.0 nM
  Background-Subtracted AF647 Mean Fluorescence Intensity: -22
Antibody 20.0 nM
  Background-Subtracted AF647 Mean Fluorescence Intensity: 13
Antibody 200.0 nM
  Background-Subtracted AF647 Mean Fluorescence Intensity: 19
